Experimental data published in paper PMC10828586, “Unmasking crucial residues in adipose triglyceride lipase for coactivation with comparative gene identification-58” (Journal of Lipid Research, 2023).

Key:
Assay in all cases: cell-based or functional assay
[1] = target: T1, Xpress-mATGL, full-length, WT (Mus musculus, UniProt Q8BJ56 1-486)
T1 sequence (looked up): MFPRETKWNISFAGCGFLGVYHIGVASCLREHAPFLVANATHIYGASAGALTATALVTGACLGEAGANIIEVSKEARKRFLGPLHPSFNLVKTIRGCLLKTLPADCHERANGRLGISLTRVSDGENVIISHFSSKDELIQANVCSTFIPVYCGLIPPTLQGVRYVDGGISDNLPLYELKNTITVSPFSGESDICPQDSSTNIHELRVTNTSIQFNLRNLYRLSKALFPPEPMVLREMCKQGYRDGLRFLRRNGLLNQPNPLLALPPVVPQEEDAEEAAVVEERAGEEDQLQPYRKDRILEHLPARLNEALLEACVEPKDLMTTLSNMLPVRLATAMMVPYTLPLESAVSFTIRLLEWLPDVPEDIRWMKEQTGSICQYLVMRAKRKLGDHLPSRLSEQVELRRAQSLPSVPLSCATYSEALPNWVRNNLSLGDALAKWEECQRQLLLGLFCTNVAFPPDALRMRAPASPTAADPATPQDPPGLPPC

[2] = target: T2, Xpress-mATGL288, WT (truncated after residue 288) (Mus musculus, UniProt Q8BJ56 1-288)
T2 sequence (looked up): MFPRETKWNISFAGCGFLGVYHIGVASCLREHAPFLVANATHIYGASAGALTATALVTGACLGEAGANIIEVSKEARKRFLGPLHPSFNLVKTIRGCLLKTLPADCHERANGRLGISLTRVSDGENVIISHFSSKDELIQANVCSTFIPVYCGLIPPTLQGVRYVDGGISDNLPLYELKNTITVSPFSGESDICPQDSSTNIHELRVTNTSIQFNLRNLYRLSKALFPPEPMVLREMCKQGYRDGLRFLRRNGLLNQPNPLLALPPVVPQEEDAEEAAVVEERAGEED

[3] = target: T3, Xpress-mATGL288 N209A/I212A/N215A (Mus musculus, UniProt Q8BJ56 1-288, N209A | I212A | N215A)
T3 sequence (looked up): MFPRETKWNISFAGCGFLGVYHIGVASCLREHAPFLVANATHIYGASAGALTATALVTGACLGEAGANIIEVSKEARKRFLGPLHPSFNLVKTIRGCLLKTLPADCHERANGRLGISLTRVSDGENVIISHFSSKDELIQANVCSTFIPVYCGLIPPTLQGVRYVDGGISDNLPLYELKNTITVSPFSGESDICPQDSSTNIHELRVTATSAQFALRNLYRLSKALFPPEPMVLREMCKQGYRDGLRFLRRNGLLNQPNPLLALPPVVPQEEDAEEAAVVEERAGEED

[4] = target: T4, smt3-mATGL288-StrepII (mouse adipose triglyceride lipase truncated after residue 288), WT (Mus musculus, UniProt Q8BJ56 1-288)
T4 sequence (looked up): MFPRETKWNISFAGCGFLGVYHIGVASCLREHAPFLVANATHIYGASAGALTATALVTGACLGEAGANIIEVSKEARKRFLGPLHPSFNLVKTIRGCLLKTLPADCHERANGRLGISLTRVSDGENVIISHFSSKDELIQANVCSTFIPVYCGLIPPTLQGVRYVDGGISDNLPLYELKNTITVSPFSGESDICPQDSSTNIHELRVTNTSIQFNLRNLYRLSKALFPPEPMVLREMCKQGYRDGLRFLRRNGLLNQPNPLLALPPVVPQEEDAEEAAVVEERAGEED

[5] = target: T5, smt3-mATGL288-StrepII N209A (Mus musculus, UniProt Q8BJ56 1-288, N209A)
T5 sequence (looked up): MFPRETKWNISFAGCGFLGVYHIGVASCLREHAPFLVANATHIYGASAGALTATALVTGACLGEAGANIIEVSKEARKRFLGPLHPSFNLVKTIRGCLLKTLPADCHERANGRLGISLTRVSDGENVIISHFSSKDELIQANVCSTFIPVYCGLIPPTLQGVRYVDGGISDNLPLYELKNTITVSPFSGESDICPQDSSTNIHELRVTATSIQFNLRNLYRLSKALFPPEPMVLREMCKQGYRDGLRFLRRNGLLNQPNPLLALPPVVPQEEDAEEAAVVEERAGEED

[6] = target: T6, smt3-mATGL288-StrepII I212A (Mus musculus, UniProt Q8BJ56 1-288, I212A)
T6 sequence (looked up): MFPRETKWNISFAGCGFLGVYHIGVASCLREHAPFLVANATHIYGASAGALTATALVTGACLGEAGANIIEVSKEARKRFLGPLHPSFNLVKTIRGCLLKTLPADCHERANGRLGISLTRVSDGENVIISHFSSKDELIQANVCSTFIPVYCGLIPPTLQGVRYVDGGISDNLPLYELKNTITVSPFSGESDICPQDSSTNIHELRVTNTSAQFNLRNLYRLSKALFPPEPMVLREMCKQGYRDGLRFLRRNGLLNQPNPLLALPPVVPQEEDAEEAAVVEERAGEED

[7] = target: T7, smt3-mATGL288-StrepII I212S (Mus musculus, UniProt Q8BJ56 1-288, I212S)
T7 sequence (looked up): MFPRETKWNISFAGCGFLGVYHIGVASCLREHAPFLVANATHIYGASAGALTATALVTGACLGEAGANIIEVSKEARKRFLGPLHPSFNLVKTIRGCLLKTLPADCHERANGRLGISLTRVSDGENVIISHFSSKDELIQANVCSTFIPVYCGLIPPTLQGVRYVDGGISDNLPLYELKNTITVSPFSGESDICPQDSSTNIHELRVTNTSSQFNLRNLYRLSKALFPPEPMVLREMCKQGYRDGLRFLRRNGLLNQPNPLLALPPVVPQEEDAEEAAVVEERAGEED

[8] = target: T8, smt3-mATGL288-StrepII N215A (Mus musculus, UniProt Q8BJ56 1-288, N215A)
T8 sequence (looked up): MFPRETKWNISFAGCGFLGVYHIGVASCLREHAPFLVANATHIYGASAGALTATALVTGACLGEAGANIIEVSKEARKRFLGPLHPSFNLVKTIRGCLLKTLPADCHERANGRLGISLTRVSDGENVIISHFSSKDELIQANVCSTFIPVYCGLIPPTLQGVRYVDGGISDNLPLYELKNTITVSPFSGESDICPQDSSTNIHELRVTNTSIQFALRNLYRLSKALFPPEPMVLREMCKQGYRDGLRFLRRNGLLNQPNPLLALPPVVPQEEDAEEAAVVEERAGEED

- fold activation of TG hydrolase activity by mCGI-58 (Expi293F lysate) [1]: ~20 fold
- fold activation of TG hydrolase activity by mCGI-58 (Expi293F lysate) [2]: 11 fold
- fold activation of TG hydrolase activity by mCGI-58 (Expi293F lysate) [3]: ≤ 2 fold
- EC50 of mCGI-58 for coactivation of TG hydrolase activity (25 μg bacterial lysate with mATGL288, purified mCGI-58 up to 2,300 nM) [4]: 178 nM
- EC50 of mCGI-58 for coactivation of TG hydrolase activity (25 μg bacterial lysate with mATGL288 N209A, purified mCGI-58 up to 2,300 nM) [5]: 500 nM
- EC50 of mCGI-58 for coactivation of TG hydrolase activity (25 μg bacterial lysate with mATGL288 I212A, purified mCGI-58 up to 2,300 nM) [6]: 500 nM
- EC50 of mCGI-58 for coactivation of TG hydrolase activity (25 μg bacterial lysate with mATGL288 I212S, purified mCGI-58 up to 2,300 nM) [7]: 200 nM
- EC50 of mCGI-58 for coactivation of TG hydrolase activity (25 μg bacterial lysate with mATGL288 N215A, purified mCGI-58 up to 2,300 nM) [8]: 200 nM
B1: smt3-mCGI-58-His6 (mouse comparative gene identification-58) (natural protein, UniProt Q9DBL9 1-351, looked up)
chain: MKAMAAEEEVDSADAGGGSGWLTGWLPTWCPTSTSHLKEAEEKMLKCVPCTYKKEPVRISNGNRIWTLMFSHNISSKTPLVLLHGFGGGLGLWALNFEDLSTDRPVYAFDLLGFGRSSRPRFDSDAEEVENQFVESIEEWRCALRLDKMILLGHNLGGFLAAAYSLKYPSRVSHLILVEPWGFPERPDLADQERPIPVWIRALGAALTPFNPLAGLRIAGPFGLSLVQRLRPDFKRKYSSMFEDDTVTEYIYHCNVQTPSGETAFKNMTIPYGWAKRPMLQRIGGLHPDIPVSVIFGARSCIDGNSGTSIQSLRPKSYVKTIAILGAGHYVYADQPEEFNQKVKEICHTVD
